Results from patent US7109167.
Each block holds one substance with its values, some of them ahead of it.

Columns and labels:
[1] = target: endothelial cell receptor for TKPPR on human aortic endothelial cells (HAEC); test: fluorescent beads on confluent HAEC, static, Experiment 1, image analysis
[2] = target: endothelial cell receptor for TKPPR on human aortic endothelial cells (HAEC); test: competition on HAEC: VEGF165 against 5% BRU-114 bubbles
[3] = target: endothelial cell receptor for TKPPR on human aortic endothelial cells (HAEC); test: competition on HAEC: VEGF165 25 ng/ml against 5% BRU-114 bubbles
[4] = target: endothelial cell receptor for TKPPR on human aortic endothelial cells (HAEC); test: competition on HAEC: VEGF165 50 ng/ml against 5% BRU-114 bubbles
[5] = target: endothelial cell receptor for TKPPR on human aortic endothelial cells (HAEC); test: competition on HAEC: VEGF165 75 ng/ml against 5% BRU-114 bubbles
[6] = target: endothelial cell receptor for TKPPR on human aortic endothelial cells (HAEC); test: competition on HAEC: VEGF165 25 ng/ml against 2% BRU-114 bubbles
[7] = target: endothelial cell receptor for TKPPR on human aortic endothelial cells (HAEC); test: competition on HAEC: VEGF165 100 ng/ml against 2% BRU-114 bubbles
[8] = target: endothelial cell receptor for TKPPR on human aortic endothelial cells (HAEC); test: competition on HAEC: VEGF165 200 ng/ml against 2% BRU-114 bubbles
[9] = target: endothelial cell receptor for TKPPR on human aortic endothelial cells (HAEC); test: competition on HAEC: VEGF165 12.5 ng/ml against 5% BRU-114 bubbles
[10] = target: endothelial cell receptor for TKPPR on human aortic endothelial cells (HAEC); test: competition on HAEC: VEGF165 6.25 ng/ml against 5% BRU-114 bubbles
[11] = target: endothelial cell receptor for TKPPR on human aortic endothelial cells (HAEC); test: competition on HAEC: KDR/Fc 125 ng/ml against 5% BRU-114 bubbles
[12] = target: endothelial cell receptor for TKPPR on human aortic endothelial cells (HAEC); test: competition on HAEC: KDR/Fc 250 ng/ml against 5% BRU-114 bubbles
[13] = target: endothelial cell receptor for TKPPR on human aortic endothelial cells (HAEC); test: competition on HAEC: KDR/Fc 500 ng/ml against 5% BRU-114 bubbles
[14] = target: endothelial cell receptor for TKPPR on human aortic endothelial cells (HAEC); test: competition on HAEC: KDR/Fc 1000 ng/ml against 5% BRU-114 bubbles
[15] = target: endothelial cell receptor for TKPPR on human aortic endothelial cells (HAEC); test: competition on HAEC: KDR/Fc 2500 ng/ml against 5% BRU-114 bubbles
[16] = target: endothelial cell receptor for TKPPR on human aortic endothelial cells (HAEC); test: competition on HAEC: VEGF121 100 ng/ml against 2% BRU-114 bubbles
[17] = target: endothelial cell receptor for TKPPR on human aortic endothelial cells (HAEC); test: competition on HAEC: VEGF121 200 ng/ml against 2% BRU-114 bubbles
[18] = target: endothelial cell receptor for TKPPR on human aortic endothelial cells (HAEC); test: competition on HAEC: VEGF121 400 ng/ml against 2% BRU-114 bubbles

Sequence of soluble human KDR/Fc chimera (R&D Systems) (P35968 20-764, change not shown): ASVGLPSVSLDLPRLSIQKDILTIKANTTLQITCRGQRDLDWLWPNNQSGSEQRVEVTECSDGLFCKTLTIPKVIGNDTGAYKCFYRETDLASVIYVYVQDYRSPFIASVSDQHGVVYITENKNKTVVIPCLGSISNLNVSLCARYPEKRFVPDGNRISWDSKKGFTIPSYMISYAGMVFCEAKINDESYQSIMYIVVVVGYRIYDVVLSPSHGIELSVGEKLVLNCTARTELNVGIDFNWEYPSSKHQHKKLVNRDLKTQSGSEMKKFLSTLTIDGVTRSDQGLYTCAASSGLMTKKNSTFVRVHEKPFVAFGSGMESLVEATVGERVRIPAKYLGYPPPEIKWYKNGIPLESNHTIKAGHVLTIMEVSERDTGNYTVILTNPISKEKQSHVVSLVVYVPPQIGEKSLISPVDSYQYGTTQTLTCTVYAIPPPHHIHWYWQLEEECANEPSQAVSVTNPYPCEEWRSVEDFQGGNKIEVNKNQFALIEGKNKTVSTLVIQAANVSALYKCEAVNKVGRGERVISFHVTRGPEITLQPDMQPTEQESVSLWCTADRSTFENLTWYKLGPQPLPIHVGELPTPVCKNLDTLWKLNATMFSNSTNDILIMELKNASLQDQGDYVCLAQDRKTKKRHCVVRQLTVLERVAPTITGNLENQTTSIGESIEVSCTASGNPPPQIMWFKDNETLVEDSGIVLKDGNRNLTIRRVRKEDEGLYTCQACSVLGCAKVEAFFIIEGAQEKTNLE

- Integrated density of bound beads (arbitrary units) [1]: 1.61
Substance: BSA-conjugated fluorescent microspheres (from UniProt P02769 25-607)

- IC50 [2]: 0.0125 µg/mL
- Bubbles Bound [3]: 342 bubbles
- Bubbles Bound [4]: 226 bubbles
- Bubbles Bound [5]: 190 bubbles
- Bubbles Bound [6]: 144 bubbles
- Bubbles Bound [7]: 94 bubbles
- Bubbles Bound [8]: 70 bubbles
- Bubbles Bound [9]: 599 bubbles
- Bubbles Bound [10]: 1180 bubbles
Substance: VEGF165 (from UniProt P15692 27-191) (ligand)

- Bubbles Bound [11]: 1030 bubbles
- Bubbles Bound [12]: 786 bubbles
- Bubbles Bound [13]: 342 bubbles
- Bubbles Bound [14]: 75 bubbles
- Bubbles Bound [15]: 84 bubbles
Substance: soluble human KDR/Fc chimera (R&D Systems) (from UniProt P35968 20-764) (Fc fusion)

- Bubbles Bound [16]: 878 bubbles
- Bubbles Bound [17]: 849 bubbles
- Bubbles Bound [18]: 778 bubbles
Substance: VEGF121 (from UniProt P15692 27-147) (ligand)
